The source of these data is article PMC7354515 (Viruses, 2020).

Test [1] deals with CuV VP2 (CuV capsid, virus-like particle) (Cutavirus, UniProt A0A1B0VEZ1). In words: glycan microarray (CFG v5.[…]), DyLight 488-labelled VLPs. Type of test: binding. To be noted: immobilised glycan; PBS/Tween-20, room temperature; weak signal, authors advise caution.
In test [2] the target is Cutavirus (CuV) VP2, assembled as virus-like particles (cutavirus (CuV)). In words: cryo-EM structure.
The target in test [3] is Tusavirus (TuV) VP2, assembled as virus-like particles (tusavirus (TuV)). As to the kind of experiment: cryo-EM structure.

Take `CC(=O)N[C@H]1C(O)O[C@H](CO)[C@@H](O[C@@H]2O[C@H](CO)[C@H](O)[C@H](O)[C@H]2O)[C@@H]1O[C@@H]1O[C@@H](C)[C@@H](O)[C@@H](O)[C@@H]1O` (stereo partly drawn) [LeX]: the “glycan microarray (CFG v5.2), DyLight 488-labelled VLPs” value in test [1] was “the minimal LeX motif was weakly bound by CuV”. Regarding “Cutavirus (CuV) VP2, assembled as virus-like particles (natural protein)”, the stoichiometry N (commonly a count of units in the complex or per binding partner) in test [2] is 60. Consider “Tusavirus (TuV) VP2, assembled as virus-like particles (natural protein)”, for which, in test [3], the stoichiometry N came to 60.
